This note sets out measurements from paper PMC9688318, “Construction of a Versatile, Programmable RNA-Binding Protein Using Designer PPR Proteins and Its Application for Splicing Control in Mammalian Cells”.

Data set [1] concerns PPR2.0t5 (synthetic designer (scaffold from Arabidopsis PPR consensus)). Kind of data set: EMSA. As to conditions: apparent; EMSA: 20 mM Tris-HCl pH 8.0, 150 mM NaCl, 0.5% NP-40, 1 mM DTT, 1 mM EDTA, 0.2 pmol biotin-RNA in 10 uL, 6% PAGE in 0.5x TBE; temperature not stated; RBP-ELISA …. In general terms: Mobility shift assays separate free from complexed probe on a gel.
For data set [2] the test system is unchanged. The data set can be described thus: RBP-ELISA. Conditions: cell lysate, EMSA: 20 mM Tris-HCl pH 8.0, 150 mM NaCl, 0.5% NP-40, 1 mM DTT, 1 mM EDTA, 0.2 pmol biotin-RNA in 10 uL, 6% PAGE in 0.5x TBE, temperature not stated.
Data set [3] concerns PPR2.0t8 (synthetic designer (scaffold from Arabidopsis PPR consensus)). The data set can be described thus: EMSA. Conditions: apparent; EMSA: 20 mM Tris-HCl pH 8.0, 150 mM NaCl, 0.5% NP-40, 1 mM DTT, 1 mM EDTA, 0.2 pmol biotin-RNA in 10 uL, 6% PAGE in 0.5x TBE; temperature not stated; RBP-ELISA ….
Data set [4] shares this test system. The data set can be described thus: RBP-ELISA. Conditions: cell lysate, EMSA: 20 mM Tris-HCl pH 8.0, 150 mM NaCl, 0.5% NP-40, 1 mM DTT, 1 mM EDTA, 0.2 pmol biotin-RNA in 10 uL, 6% PAGE in 0.5x TBE, temperature not stated.
Data set [5] concerns PPR2.0t19 (synthetic designer (scaffold from Arabidopsis PPR consensus)). Kind of data set: EMSA. Conditions: apparent; EMSA: 20 mM Tris-HCl pH 8.0, 150 mM NaCl, 0.5% NP-40, 1 mM DTT, 1 mM EDTA, 0.2 pmol biotin-RNA in 10 uL, 6% PAGE in 0.5x TBE; temperature not stated; RBP-ELISA ….
Data set [6] has the same test system. The data set can be described thus: RBP-ELISA. As to conditions: cell lysate, EMSA: 20 mM Tris-HCl pH 8.0, 150 mM NaCl, 0.5% NP-40, 1 mM DTT, 1 mM EDTA, 0.2 pmol biotin-RNA in 10 uL, 6% PAGE in 0.5x TBE, temperature not stated.
Data set [7] relates to PPR2.0t3 (synthetic designer (scaffold from Arabidopsis PPR consensus)). The data set can be described thus: EMSA. Conditions: apparent; EMSA: 20 mM Tris-HCl pH 8.0, 150 mM NaCl, 0.5% NP-40, 1 mM DTT, 1 mM EDTA, 0.2 pmol biotin-RNA in 10 uL, 6% PAGE in 0.5x TBE; temperature not stated; RBP-ELISA ….
Data set [8] shares this test system. Kind of data set: RBP-ELISA. As to conditions: cell lysate, EMSA: 20 mM Tris-HCl pH 8.0, 150 mM NaCl, 0.5% NP-40, 1 mM DTT, 1 mM EDTA, 0.2 pmol biotin-RNA in 10 uL, 6% PAGE in 0.5x TBE, temperature not stated.
The test system of data set [9] is PPR2.0t1 (synthetic designer (scaffold from Arabidopsis PPR consensus)). The data set can be described thus: EMSA. Conditions: apparent; EMSA: 20 mM Tris-HCl pH 8.0, 150 mM NaCl, 0.5% NP-40, 1 mM DTT, 1 mM EDTA, 0.2 pmol biotin-RNA in 10 uL, 6% PAGE in 0.5x TBE; temperature not stated; RBP-ELISA ….
For data set [10] the test system is unchanged. Kind of data set: RBP-ELISA. Conditions: cell lysate, EMSA: 20 mM Tris-HCl pH 8.0, 150 mM NaCl, 0.5% NP-40, 1 mM DTT, 1 mM EDTA, 0.2 pmol biotin-RNA in 10 uL, 6% PAGE in 0.5x TBE, temperature not stated.
The subject of data set [11] is PPR2.0t14 (synthetic designer (scaffold from Arabidopsis PPR consensus)). The data set can be described thus: EMSA. As to conditions: apparent; EMSA: 20 mM Tris-HCl pH 8.0, 150 mM NaCl, 0.5% NP-40, 1 mM DTT, 1 mM EDTA, 0.2 pmol biotin-RNA in 10 uL, 6% PAGE in 0.5x TBE; temperature not stated; RBP-ELISA ….
The test system is the same in data set [12]. Kind of data set: RBP-ELISA. Conditions: cell lysate, EMSA: 20 mM Tris-HCl pH 8.0, 150 mM NaCl, 0.5% NP-40, 1 mM DTT, 1 mM EDTA, 0.2 pmol biotin-RNA in 10 uL, 6% PAGE in 0.5x TBE, temperature not stated.
Data set [13] concerns PPR2.0t2 (synthetic designer (scaffold from Arabidopsis PPR consensus)). Kind of data set: EMSA. Conditions: apparent; EMSA: 20 mM Tris-HCl pH 8.0, 150 mM NaCl, 0.5% NP-40, 1 mM DTT, 1 mM EDTA, 0.2 pmol biotin-RNA in 10 uL, 6% PAGE in 0.5x TBE; temperature not stated; RBP-ELISA ….
The test system is the same in data set [14]. Kind of data set: RBP-ELISA. As to conditions: cell lysate, EMSA: 20 mM Tris-HCl pH 8.0, 150 mM NaCl, 0.5% NP-40, 1 mM DTT, 1 mM EDTA, 0.2 pmol biotin-RNA in 10 uL, 6% PAGE in 0.5x TBE, temperature not stated.
Data set [15] relates to PPR2.0t11 (synthetic designer (scaffold from Arabidopsis PPR consensus)). The data set can be described thus: EMSA. As to conditions: apparent; EMSA: 20 mM Tris-HCl pH 8.0, 150 mM NaCl, 0.5% NP-40, 1 mM DTT, 1 mM EDTA, 0.2 pmol biotin-RNA in 10 uL, 6% PAGE in 0.5x TBE; temperature not stated; RBP-ELISA ….
Data set [16] shares this test system. The data set can be described thus: RBP-ELISA. Conditions: cell lysate, EMSA: 20 mM Tris-HCl pH 8.0, 150 mM NaCl, 0.5% NP-40, 1 mM DTT, 1 mM EDTA, 0.2 pmol biotin-RNA in 10 uL, 6% PAGE in 0.5x TBE, temperature not stated.
The test system of data set [17] is PPR2.0t24 (synthetic designer (scaffold from Arabidopsis PPR consensus)). The data set can be described thus: EMSA. As to conditions: apparent; EMSA: 20 mM Tris-HCl pH 8.0, 150 mM NaCl, 0.5% NP-40, 1 mM DTT, 1 mM EDTA, 0.2 pmol biotin-RNA in 10 uL, 6% PAGE in 0.5x TBE; temperature not stated; RBP-ELISA ….
Data set [18] relates to PPR2.0t15 (synthetic designer (scaffold from Arabidopsis PPR consensus)). The data set can be described thus: EMSA. Conditions: apparent; EMSA: 20 mM Tris-HCl pH 8.0, 150 mM NaCl, 0.5% NP-40, 1 mM DTT, 1 mM EDTA, 0.2 pmol biotin-RNA in 10 uL, 6% PAGE in 0.5x TBE; temperature not stated; RBP-ELISA ….
The test system is the same in data set [19]. Kind of data set: RBP-ELISA. As to conditions: cell lysate, EMSA: 20 mM Tris-HCl pH 8.0, 150 mM NaCl, 0.5% NP-40, 1 mM DTT, 1 mM EDTA, 0.2 pmol biotin-RNA in 10 uL, 6% PAGE in 0.5x TBE, temperature not stated.
The subject of data set [20] is PPR2.0t23 (synthetic designer (scaffold from Arabidopsis PPR consensus)). Kind of data set: EMSA. As to conditions: apparent; EMSA: 20 mM Tris-HCl pH 8.0, 150 mM NaCl, 0.5% NP-40, 1 mM DTT, 1 mM EDTA, 0.2 pmol biotin-RNA in 10 uL, 6% PAGE in 0.5x TBE; temperature not stated; RBP-ELISA ….
Data set [21] shares this test system. The data set can be described thus: RBP-ELISA. Conditions: cell lysate, EMSA: 20 mM Tris-HCl pH 8.0, 150 mM NaCl, 0.5% NP-40, 1 mM DTT, 1 mM EDTA, 0.2 pmol biotin-RNA in 10 uL, 6% PAGE in 0.5x TBE, temperature not stated.
For data set [22], the system named is PPR2.0t4 (synthetic designer (scaffold from Arabidopsis PPR consensus)). Kind of data set: EMSA. Conditions: apparent; EMSA: 20 mM Tris-HCl pH 8.0, 150 mM NaCl, 0.5% NP-40, 1 mM DTT, 1 mM EDTA, 0.2 pmol biotin-RNA in 10 uL, 6% PAGE in 0.5x TBE; temperature not stated; RBP-ELISA ….
The test system is the same in data set [23]. Kind of data set: RBP-ELISA. Conditions: cell lysate, EMSA: 20 mM Tris-HCl pH 8.0, 150 mM NaCl, 0.5% NP-40, 1 mM DTT, 1 mM EDTA, 0.2 pmol biotin-RNA in 10 uL, 6% PAGE in 0.5x TBE, temperature not stated.

As for “GACAUGCCAACAUCAGUCUGAUAAGGACUG [Probe_t5]”, in data set [1], the Kd came out at 167 nM. Moreover, the binding signal in data set [2] was 1.67e+07 luminescence.
“GACAUGCCACUAUUUAAGUUAUCAAGACUG [Probe_t8]”: the Kd in data set [3] turned out to be 1.95 nM. In data set [4], this sequence returned a binding signal of 4.7e+07 luminescence.
In the case of “GACAUGCGUGAUGUGGAGUUAAGGCGACUG [Probe_t19]”, the Kd in data set [5] worked out at 173 nM. For the same sequence, the binding signal in data set [6] is 1.19e+07 luminescence.
Take “GACAUGCCUGAGUCAUAACCAGCCUGACUG [Probe_t3]”: in data set [7], the Kd came to 59.2 nM. In data set [8], this sequence registered a binding signal of 3.35e+07 luminescence.
“GACAUGCGAAUGAACUCUUCCGGGAGACUG [Probe_t1]”: the Kd in data set [9] came to 3.45 nM. The same sequence gave a binding signal in data set [10] of 6.64e+07 luminescence.
Consider “GACAUGCGCAGAUAAUUAAUAAGAAGACUG [Probe_t14]”, for which, in [11], the Kd came out at 197 nM. In [12], this sequence showed a binding signal of 1.33e+07 luminescence.
As to “GACAUGCGAGAGGAAGCCUGAGAGUGACUG [Probe_t2]”, the Kd in data set [13] turned out to be 4 nM. Further, the binding signal in [14] came out at 5.68e+07 luminescence.
For the sequence “GACAUGCGACUCAGGAAUCGGCUCUGACUG [Probe_t11]”, the Kd in [15] was found to be 63.3 nM. This sequence yielded a binding signal in data set [16] of 3.78e+07 luminescence.
“GACAUGCGGCGGGGCACUGUGCGUGGACUG [Probe_t24]”: in data set [17], the Kd worked out at 11 nM.
In the case of “GACAUGCAAGGAUAAUAUCAAACACGACUG [Probe_t15]”, in [18], the Kd was 41 nM. This sequence also showed a binding signal in [19] of 2.84e+07 luminescence.
Regarding “GACAUGCCCCAUAGAUGUGACAAGCGACUG [Probe_t23]”, the Kd in data set [20] is 10.4 nM. Further, the binding signal in [21] worked out at 3.27e+07 luminescence.
In the case of “GACAUGCGGCAAAAAGAUCACUGUAGACUG [Probe_t4]”, in data set [22], the Kd turned out to be 2.57 nM. In data set [23], this sequence had a binding signal of 5.98e+07 luminescence.
